From patent US20230002480A1

Assays:
Experiment in all cases: cell-based or functional assay
[1] = target: HIV-1 Env of pseudovirus 1006_11_C3_1601 (HIV-1)
[2] = target: HIV-1 Env of pseudovirus 1054_07_TC4_1499 (HIV-1)
[3] = target: HIV-1 Env of pseudovirus 1394C9G1(Rev-) (HIV-1)
[4] = target: HIV-1 Env of pseudovirus 249M B10 (HIV-1)
[5] = target: HIV-1 Env of pseudovirus 62357_14_D3_4589 (HIV-1)
[6] = target: HIV-1 Env of pseudovirus 6244_13_B5_4576 (HIV-1)
[7] = target: HIV-1 Env of pseudovirus 6535.3 (HIV-1)
[8] = target: HIV-1 Env of pseudovirus 7030102001E5(Rev-) (HIV-1)
[9] = target: HIV-1 Env of pseudovirus BF1266.431a (HIV-1)
[10] = target: HIV-1 Env of pseudovirus CAP45.2.00.G3 (HIV-1)
[11] = target: HIV-1 Env of pseudovirus CNE17 (HIV-1)
[12] = target: HIV-1 Env of pseudovirus CNE30 (HIV-1)
[13] = target: HIV-1 Env of pseudovirus CNE58 (HIV-1)
[14] = target: HIV-1 Env of pseudovirus Ce1172_H1 (HIV-1)
[15] = target: HIV-1 Env of pseudovirus Ce2060_G9 (HIV-1)
[16] = target: HIV-1 Env of pseudovirus Ce704809221_1B3 (HIV-1)
[17] = target: HIV-1 Env of pseudovirus Du172.17 (HIV-1)
[18] = target: HIV-1 Env of pseudovirus HIV-16845-2.22 (HIV-1)
[19] = target: HIV-1 Env of pseudovirus Q259.d2.17 (HIV-1)
[20] = target: HIV-1 Env of pseudovirus QH0692.42 (HIV-1)
[21] = target: HIV-1 Env of pseudovirus RHPA4259.7 (HIV-1)
[22] = target: HIV-1 Env of pseudovirus TRO.11 (HIV-1)
[23] = target: HIV-1 Env of pseudovirus WEAU_d15_410_787 (HIV-1)
[24] = target: HIV-1 Env of pseudovirus WITO4160.33 (HIV-1)

Work on N49P9 (antibody) yielded an IC50 [1] of 0.076 µg/mL, an IC80 [1] of 0.231 µg/mL and an MPI [1] of 100. It also gave an IC50 [2] of 0.885 µg/mL, an IC80 [2] of 2.44 µg/mL and an MPI [2] of 100. It also gave an IC50 [3] of over 50 µg/mL, an IC80 [3] of over 50 µg/mL and an MPI [3] of 40. For the same substance, the IC50 [4] was 0.203 µg/mL, the IC80 [4] was 1.41 µg/mL and the MPI [4] was 97. The IC50 [5] was 0.074 µg/mL, the IC80 [5] was 0.307 µg/mL and the MPI [5] was 100. For the same substance, the IC50 [6] was 0.132 µg/mL, the IC80 [6] was 0.366 µg/mL and the MPI [6] was 100. For the same substance, the IC50 [7] was 0.552 µg/mL, the IC80 [7] was 2.26 µg/mL and the MPI [7] was 100. For the same substance, the IC50 [8] was 0.453 µg/mL, the IC80 [8] was 2.03 µg/mL and the MPI [8] was 100. For the same substance, the IC50 [9] was 0.154 µg/mL, the IC80 [9] was 0.519 µg/mL and the MPI [9] was 99. The IC50 [10] was 0.294 µg/mL, the IC80 [10] was 1.99 µg/mL and the MPI [10] was 98. For the same substance, the IC50 [11] was 0.364 µg/mL, the IC80 [11] was 1.7 µg/mL and the MPI [11] was 100. For the same substance, the IC50 [12] was 0.259 µg/mL, the IC80 [12] was 0.693 µg/mL and the MPI [12] was 100. The IC50 [13] was 0.03 µg/mL, the IC80 [13] was 0.081 µg/mL and the MPI [13] was 100. It also gave an IC50 [14] of 8.8 µg/mL, an IC80 [14] of over 50 µg/mL and an MPI [14] of 70. The IC50 [15] was 0.419 µg/mL, the IC80 [15] was 2.19 µg/mL and the MPI [15] was 100. The IC50 [16] was 0.133 µg/mL, the IC80 [16] was 0.605 µg/mL and the MPI [16] was 100. It also gave an IC50 [17] of 0.023 µg/mL, an IC80 [17] of 0.178 µg/mL and an MPI [17] of 100. For the same substance, the IC50 [18] was 1.09 µg/mL, the IC80 [18] was 9.96 µg/mL and the MPI [18] was 98. It also gave an IC50 [19] of 0.807 µg/mL, an IC80 [19] of over 50 µg/mL and an MPI [19] of 74. The IC50 [20] was 0.352 µg/mL, the IC80 [20] was 1.21 µg/mL and the MPI [20] was 100. It also gave an IC50 [21] of 0.023 µg/mL, an IC80 [21] of 0.078 µg/mL and an MPI [21] of 100. The IC50 [22] was 0.044 µg/mL, the IC80 [22] was 0.177 µg/mL and the MPI [22] was 100. The IC50 [23] was 0.063 µg/mL, the IC80 [23] was 0.162 µg/mL and the MPI [23] was 100. The IC50 [24] was 0.058 µg/mL, the IC80 [24] was 0.165 µg/mL and the MPI [24] was 100.

With N49P9.1 (antibody) the IC50 [1] was 0.135 µg/mL, the IC80 [1] was 0.448 µg/mL and the MPI [1] was 100. For the same substance, the IC50 [2] was 1.8 µg/mL, the IC80 [2] was 7.2 µg/mL and the MPI [2] was 100. For the same substance, the IC50 [3] was over 50 µg/mL, the IC80 [3] was over 50 µg/mL and the MPI [3] was 6. The IC50 [4] was 0.305 µg/mL, the IC80 [4] was 1.64 µg/mL and the MPI [4] was 96. It also gave an IC50 [5] of 0.227 µg/mL, an IC80 [5] of 1.09 µg/mL and an MPI [5] of 99. The IC50 [6] was 0.343 µg/mL, the IC80 [6] was 1.5 µg/mL and the MPI [6] was 100. The IC50 [7] was 0.232 µg/mL, the IC80 [7] was 2.06 µg/mL and the MPI [7] was 100. The IC50 [8] was 0.635 µg/mL, the IC80 [8] was 2.02 µg/mL and the MPI [8] was 100. It also gave an IC50 [9] of 0.808 µg/mL, an IC80 [9] of 3.14 µg/mL and an MPI [9] of 95. It also gave an IC50 [10] of 1.72 µg/mL, an IC80 [10] of 19.6 µg/mL and an MPI [10] of 88. It also gave an IC50 [11] of 0.251 µg/mL, an IC80 [11] of 1.23 µg/mL and an MPI [11] of 100. It also gave an IC50 [12] of 0.271 µg/mL, an IC80 [12] of 0.971 µg/mL and an MPI [12] of 100. It also gave an IC50 [13] of 0.027 µg/mL, an IC80 [13] of 0.074 µg/mL and an MPI [13] of 100. It also gave an IC50 [14] of over 50 µg/mL, an IC80 [14] of over 50 µg/mL and an MPI [14] of 42. For the same substance, the IC50 [15] was 0.781 µg/mL, the IC80 [15] was 3.54 µg/mL and the MPI [15] was 100. The IC50 [16] was 0.162 µg/mL, the IC80 [16] was 0.661 µg/mL and the MPI [16] was 100. For the same substance, the IC50 [17] was 0.026 µg/mL, the IC80 [17] was 0.182 µg/mL and the MPI [17] was 100. The IC50 [18] was 2.13 µg/mL, the IC80 [18] was 10.7 µg/mL and the MPI [18] was 98. The IC50 [19] was over 50 µg/mL, the IC80 [19] was over 50 µg/mL and the MPI [19] was 48. For the same substance, the IC50 [20] was 0.107 µg/mL, the IC80 [20] was 0.709 µg/mL and the MPI [20] was 100. It also gave an IC50 [21] of 0.021 µg/mL, an IC80 [21] of 0.066 µg/mL and an MPI [21] of 100. For the same substance, the IC50 [22] was 0.052 µg/mL, the IC80 [22] was 0.196 µg/mL and the MPI [22] was 100. For the same substance, the IC50 [23] was 0.068 µg/mL, the IC80 [23] was 0.253 µg/mL and the MPI [23] was 100. It also gave an IC50 [24] of 0.051 µg/mL, an IC80 [24] of 0.241 µg/mL and an MPI [24] of 100.

N49P19 (antibody) gave an IC50 [1] of 0.4 µg/mL, an IC80 [1] of 1.33 µg/mL and an MPI [1] of 100. It also gave an IC50 [2] of 2.85 µg/mL, an IC80 [2] of 11.7 µg/mL and an MPI [2] of 99. The IC50 [3] was over 50 µg/mL, the IC80 [3] was over 50 µg/mL and the MPI [3] was 17. It also gave an IC50 [4] of over 50 µg/mL, an IC80 [4] of over 50 µg/mL and an MPI [4] of 39. The IC50 [5] was 37.4 µg/mL, the IC80 [5] was over 50 µg/mL and the MPI [5] was 51. For the same substance, the IC50 [6] was 0.571 µg/mL, the IC80 [6] was 1.82 µg/mL and the MPI [6] was 100. The IC50 [7] was 9.09 µg/mL, the IC80 [7] was 28.3 µg/mL and the MPI [7] was 95. The IC50 [8] was 0.95 µg/mL, the IC80 [8] was 4.7 µg/mL and the MPI [8] was 100. It also gave an IC50 [9] of over 50 µg/mL, an IC80 [9] of over 50 µg/mL and an MPI [9] of 15. For the same substance, the IC50 [10] was over 50 µg/mL, the IC80 [10] was over 50 µg/mL and the MPI [10] was 5. The IC50 [11] was over 50 µg/mL, the IC80 [11] was over 50 µg/mL and the MPI [11] was 30. The IC50 [12] was 1.27 µg/mL, the IC80 [12] was 4.28 µg/mL and the MPI [12] was 100. For the same substance, the IC50 [13] was over 50 µg/mL, the IC80 [13] was over 50 µg/mL and the MPI [13] was 43. The IC50 [14] was over 50 µg/mL, the IC80 [14] was over 50 µg/mL and the MPI [14] was 3. For the same substance, the IC50 [15] was 1.06 µg/mL, the IC80 [15] was 5.62 µg/mL and the MPI [15] was 98. It also gave an IC50 [16] of 3.75 µg/mL, an IC80 [16] of 19.2 µg/mL and an MPI [16] of 93. For the same substance, the IC50 [17] was over 50 µg/mL, the IC80 [17] was over 50 µg/mL and the MPI [17] was 30. It also gave an IC50 [18] of 14.5 µg/mL, an IC80 [18] of over 50 µg/mL and an MPI [18] of 73. For the same substance, the IC50 [19] was over 50 µg/mL, the IC80 [19] was over 50 µg/mL and the MPI [19] was 11. The IC50 [20] was 2.56 µg/mL, the IC80 [20] was 13.4 µg/mL and the MPI [20] was 98. For the same substance, the IC50 [21] was over 50 µg/mL, the IC80 [21] was over 50 µg/mL and the MPI [21] was 42. It also gave an IC50 [22] of 0.394 µg/mL, an IC80 [22] of 1.3 µg/mL and an MPI [22] of 100. For the same substance, the IC50 [23] was 0.177 µg/mL, the IC80 [23] was 0.612 µg/mL and the MPI [23] was 100. For the same substance, the IC50 [24] was 0.263 µg/mL, the IC80 [24] was 1.29 µg/mL and the MPI [24] was 100.
